Legend:
[1] = system: 3-phosphoglycerate dehydrogenase (PGD); assay: PGD enzyme activity in crude extracts (McKitrick and Pizer test); type: biochemical, Escherichia coli; settings: crude extract of strain expressing plasmid-encoded serA allele; backward reaction, NADH oxidation at 340 nm
From the text: (§1) For example, the PGD activity can be determined in analogy with the method described by McKitrick and Pizer (1980, J. Bacteriol. 141:235-245). The backward reaction is used to measure the enzyme activity in an assay sample which contains phosphohydroxypyruvate and NADH/H^+. The reaction is started by adding enzyme and is monitored in a spectrophotometer by way of the decrease in extinction at 340 nm which is caused by oxidation of the NADH/H^+.
(§2) At an optical density of 1.0, serA expression was in each case induced by adding 0.4 mM […] and the culture was incubated for a further 3 hours. The cells were subsequently harvested by centrifugation, washed and resuspended in 2 ml of buffer (100 mM K-phosphate, pH 7.0; 10 mM MgCl2; 1 mM dithiothreitol). The cells were disrupted using a French press (Spectronic Instruments, Inc. Rochester, N.Y., USA) at a pressure of 18 000 psi. The crude extracts were clarified by centrifugation at 30 000 g and PGD activity was determined using the McKitrick and Pizer test (1980, J. Bacteriol. 141:235-245).

[2] = biological target: 3-phosphoglycerate dehydrogenase (PGD); assay: Inhibition of PGD activity by L-serine, inhibitor constant Ki; type: biochemical, Escherichia coli; settings: Ki = inhibitor concentration at which activity is 50% of activity without inhibitor
From the text: as §1, §2

B1: serA49: E. coli PGD variant with replacement G349P (protein, UniProt P0A9T0 2-410, looked up, variant G349P)
D-3-phosphoglycerate …: AKVSLEKDKIKFLLVEGVHQKALESLRAAGYTNIEFHKGALDDEQLKESIRDAHFIGLRSRTHLTEDVINAAEKLVAIGCFCIGTNQVDLDAAAKRGIPVFNAPFSNTRSVAELVIGELLLLLRGVPEANAKAHRGVWNKLAAGSFEARGKKLGIIGYGHIGTQLGILAESLGMYVYFYDIENKLPLGNATQVQHLSDLLNMSDVVSLHVPENPSTKNMMGAKEISLMKPGSLLINASRGTVVDIPALCDALASKHLAGAAIDVFPTEPATNSDPFTSPLCEFDNVLLTPHIGGSTQEAQENIGLEVAGKLIKYSDNGSTLSAVNFPEVSLPLHGGRRLMHIHENRPPVLTALNKIFAEQGVNIAAQYLQTSAQMGYVVIDIEADEDVAEKALQAMKAIPGTIRARLLY
- Activity [1]: 0.05 units/mg
- Ki [2]: 6 mM

B2: serA206: E. coli PGD variant with replacement T372P (protein, UniProt P0A9T0 2-410, looked up, variant T372P)
D-3-phosphoglycerate …: AKVSLEKDKIKFLLVEGVHQKALESLRAAGYTNIEFHKGALDDEQLKESIRDAHFIGLRSRTHLTEDVINAAEKLVAIGCFCIGTNQVDLDAAAKRGIPVFNAPFSNTRSVAELVIGELLLLLRGVPEANAKAHRGVWNKLAAGSFEARGKKLGIIGYGHIGTQLGILAESLGMYVYFYDIENKLPLGNATQVQHLSDLLNMSDVVSLHVPENPSTKNMMGAKEISLMKPGSLLINASRGTVVDIPALCDALASKHLAGAAIDVFPTEPATNSDPFTSPLCEFDNVLLTPHIGGSTQEAQENIGLEVAGKLIKYSDNGSTLSAVNFPEVSLPLHGGRRLMHIHENRPGVLTALNKIFAEQGVNIAAQYLQPSAQMGYVVIDIEADEDVAEKALQAMKAIPGTIRARLLY
- Activity [1]: 0.05 units/mg

B3: serA234: E. coli PGD variant with replacement T372K (protein, UniProt P0A9T0 2-410, looked up, variant T372K)
D-3-phosphoglycerate …: AKVSLEKDKIKFLLVEGVHQKALESLRAAGYTNIEFHKGALDDEQLKESIRDAHFIGLRSRTHLTEDVINAAEKLVAIGCFCIGTNQVDLDAAAKRGIPVFNAPFSNTRSVAELVIGELLLLLRGVPEANAKAHRGVWNKLAAGSFEARGKKLGIIGYGHIGTQLGILAESLGMYVYFYDIENKLPLGNATQVQHLSDLLNMSDVVSLHVPENPSTKNMMGAKEISLMKPGSLLINASRGTVVDIPALCDALASKHLAGAAIDVFPTEPATNSDPFTSPLCEFDNVLLTPHIGGSTQEAQENIGLEVAGKLIKYSDNGSTLSAVNFPEVSLPLHGGRRLMHIHENRPGVLTALNKIFAEQGVNIAAQYLQKSAQMGYVVIDIEADEDVAEKALQAMKAIPGTIRARLLY
- Activity [1]: 0.05 units/mg

B4: serA223: E. coli PGD variant with replacement T372E (protein, UniProt P0A9T0 2-410, looked up, variant T372E)
D-3-phosphoglycerate …: AKVSLEKDKIKFLLVEGVHQKALESLRAAGYTNIEFHKGALDDEQLKESIRDAHFIGLRSRTHLTEDVINAAEKLVAIGCFCIGTNQVDLDAAAKRGIPVFNAPFSNTRSVAELVIGELLLLLRGVPEANAKAHRGVWNKLAAGSFEARGKKLGIIGYGHIGTQLGILAESLGMYVYFYDIENKLPLGNATQVQHLSDLLNMSDVVSLHVPENPSTKNMMGAKEISLMKPGSLLINASRGTVVDIPALCDALASKHLAGAAIDVFPTEPATNSDPFTSPLCEFDNVLLTPHIGGSTQEAQENIGLEVAGKLIKYSDNGSTLSAVNFPEVSLPLHGGRRLMHIHENRPGVLTALNKIFAEQGVNIAAQYLQESAQMGYVVIDIEADEDVAEKALQAMKAIPGTIRARLLY
- Activity [1]: 0.04 units/mg

B5: serA415: E. coli PGD variant with replacement G349K (protein, UniProt P0A9T0 2-410, looked up, variant G349K)
D-3-phosphoglycerate …: AKVSLEKDKIKFLLVEGVHQKALESLRAAGYTNIEFHKGALDDEQLKESIRDAHFIGLRSRTHLTEDVINAAEKLVAIGCFCIGTNQVDLDAAAKRGIPVFNAPFSNTRSVAELVIGELLLLLRGVPEANAKAHRGVWNKLAAGSFEARGKKLGIIGYGHIGTQLGILAESLGMYVYFYDIENKLPLGNATQVQHLSDLLNMSDVVSLHVPENPSTKNMMGAKEISLMKPGSLLINASRGTVVDIPALCDALASKHLAGAAIDVFPTEPATNSDPFTSPLCEFDNVLLTPHIGGSTQEAQENIGLEVAGKLIKYSDNGSTLSAVNFPEVSLPLHGGRRLMHIHENRPKVLTALNKIFAEQGVNIAAQYLQTSAQMGYVVIDIEADEDVAEKALQAMKAIPGTIRARLLY
- Activity [1]: 0.03 units/mg
- Ki [2]: 15 mM

B6: serA414: E. coli PGD variant with replacement G349A (protein, UniProt P0A9T0 2-410, looked up, variant G349A)
D-3-phosphoglycerate …: AKVSLEKDKIKFLLVEGVHQKALESLRAAGYTNIEFHKGALDDEQLKESIRDAHFIGLRSRTHLTEDVINAAEKLVAIGCFCIGTNQVDLDAAAKRGIPVFNAPFSNTRSVAELVIGELLLLLRGVPEANAKAHRGVWNKLAAGSFEARGKKLGIIGYGHIGTQLGILAESLGMYVYFYDIENKLPLGNATQVQHLSDLLNMSDVVSLHVPENPSTKNMMGAKEISLMKPGSLLINASRGTVVDIPALCDALASKHLAGAAIDVFPTEPATNSDPFTSPLCEFDNVLLTPHIGGSTQEAQENIGLEVAGKLIKYSDNGSTLSAVNFPEVSLPLHGGRRLMHIHENRPAVLTALNKIFAEQGVNIAAQYLQTSAQMGYVVIDIEADEDVAEKALQAMKAIPGTIRARLLY
- Activity [1]: 0.05 units/mg
- Ki [2]: 1 mM

B7: serA410: E. coli PGD variant with replacement G349S (protein, UniProt P0A9T0 2-410, looked up, variant G349S)
D-3-phosphoglycerate …: AKVSLEKDKIKFLLVEGVHQKALESLRAAGYTNIEFHKGALDDEQLKESIRDAHFIGLRSRTHLTEDVINAAEKLVAIGCFCIGTNQVDLDAAAKRGIPVFNAPFSNTRSVAELVIGELLLLLRGVPEANAKAHRGVWNKLAAGSFEARGKKLGIIGYGHIGTQLGILAESLGMYVYFYDIENKLPLGNATQVQHLSDLLNMSDVVSLHVPENPSTKNMMGAKEISLMKPGSLLINASRGTVVDIPALCDALASKHLAGAAIDVFPTEPATNSDPFTSPLCEFDNVLLTPHIGGSTQEAQENIGLEVAGKLIKYSDNGSTLSAVNFPEVSLPLHGGRRLMHIHENRPSVLTALNKIFAEQGVNIAAQYLQTSAQMGYVVIDIEADEDVAEKALQAMKAIPGTIRARLLY
- Activity [1]: 0.04 units/mg
- Ki [2]: 2 mM

B8: serA229: E. coli PGD variant with replacement T372R (protein, UniProt P0A9T0 2-410, looked up, variant T372R)
D-3-phosphoglycerate …: AKVSLEKDKIKFLLVEGVHQKALESLRAAGYTNIEFHKGALDDEQLKESIRDAHFIGLRSRTHLTEDVINAAEKLVAIGCFCIGTNQVDLDAAAKRGIPVFNAPFSNTRSVAELVIGELLLLLRGVPEANAKAHRGVWNKLAAGSFEARGKKLGIIGYGHIGTQLGILAESLGMYVYFYDIENKLPLGNATQVQHLSDLLNMSDVVSLHVPENPSTKNMMGAKEISLMKPGSLLINASRGTVVDIPALCDALASKHLAGAAIDVFPTEPATNSDPFTSPLCEFDNVLLTPHIGGSTQEAQENIGLEVAGKLIKYSDNGSTLSAVNFPEVSLPLHGGRRLMHIHENRPGVLTALNKIFAEQGVNIAAQYLQRSAQMGYVVIDIEADEDVAEKALQAMKAIPGTIRARLLY
- Activity [1]: 0.04 units/mg

B9: serA411: E. coli PGD variant with replacement G349T (protein, UniProt P0A9T0 2-410, looked up, variant G349T)
D-3-phosphoglycerate …: AKVSLEKDKIKFLLVEGVHQKALESLRAAGYTNIEFHKGALDDEQLKESIRDAHFIGLRSRTHLTEDVINAAEKLVAIGCFCIGTNQVDLDAAAKRGIPVFNAPFSNTRSVAELVIGELLLLLRGVPEANAKAHRGVWNKLAAGSFEARGKKLGIIGYGHIGTQLGILAESLGMYVYFYDIENKLPLGNATQVQHLSDLLNMSDVVSLHVPENPSTKNMMGAKEISLMKPGSLLINASRGTVVDIPALCDALASKHLAGAAIDVFPTEPATNSDPFTSPLCEFDNVLLTPHIGGSTQEAQENIGLEVAGKLIKYSDNGSTLSAVNFPEVSLPLHGGRRLMHIHENRPTVLTALNKIFAEQGVNIAAQYLQTSAQMGYVVIDIEADEDVAEKALQAMKAIPGTIRARLLY
- Activity [1]: 0.04 units/mg
- Ki [2]: 3 mM

B10: serA21: E. coli PGD variant with replacement T372D (protein, UniProt P0A9T0 2-410, looked up, variant T372D)
D-3-phosphoglycerate …: AKVSLEKDKIKFLLVEGVHQKALESLRAAGYTNIEFHKGALDDEQLKESIRDAHFIGLRSRTHLTEDVINAAEKLVAIGCFCIGTNQVDLDAAAKRGIPVFNAPFSNTRSVAELVIGELLLLLRGVPEANAKAHRGVWNKLAAGSFEARGKKLGIIGYGHIGTQLGILAESLGMYVYFYDIENKLPLGNATQVQHLSDLLNMSDVVSLHVPENPSTKNMMGAKEISLMKPGSLLINASRGTVVDIPALCDALASKHLAGAAIDVFPTEPATNSDPFTSPLCEFDNVLLTPHIGGSTQEAQENIGLEVAGKLIKYSDNGSTLSAVNFPEVSLPLHGGRRLMHIHENRPGVLTALNKIFAEQGVNIAAQYLQDSAQMGYVVIDIEADEDVAEKALQAMKAIPGTIRARLLY
- Activity [1]: 0.05 units/mg

B11: serA412: E. coli PGD variant with replacement G349V (protein, UniProt P0A9T0 2-410, looked up, variant G349V)
D-3-phosphoglycerate …: AKVSLEKDKIKFLLVEGVHQKALESLRAAGYTNIEFHKGALDDEQLKESIRDAHFIGLRSRTHLTEDVINAAEKLVAIGCFCIGTNQVDLDAAAKRGIPVFNAPFSNTRSVAELVIGELLLLLRGVPEANAKAHRGVWNKLAAGSFEARGKKLGIIGYGHIGTQLGILAESLGMYVYFYDIENKLPLGNATQVQHLSDLLNMSDVVSLHVPENPSTKNMMGAKEISLMKPGSLLINASRGTVVDIPALCDALASKHLAGAAIDVFPTEPATNSDPFTSPLCEFDNVLLTPHIGGSTQEAQENIGLEVAGKLIKYSDNGSTLSAVNFPEVSLPLHGGRRLMHIHENRPVVLTALNKIFAEQGVNIAAQYLQTSAQMGYVVIDIEADEDVAEKALQAMKAIPGTIRARLLY
- Activity [1]: 0.05 units/mg
- Ki [2]: 5 mM

— patent US7582460B2 (Wacker Chemie AG, priority 2003, dated 2009)
